Data published in patent US20150132813A1, “BIOSYNTHETIC PATHWAYS, RECOMBINANT CELLS, AND METHODS” (REGENTS OF THE UNIVERSITY OF MINNESOTA, priority 2012, published 2015).

How the values were obtained:
[1] = biological target: indolepyruvate decarboxylase (IPDC) (Salmonella enterica, UniProt H9L492); assay: Coupled enzymatic assay of IPDC (NADH absorbance at 340 nm); conditions: substrate of IPDC, pH 6.8
Protocol: (§1) The kinetic parameters were measured by monitoring the NADH absorbance at 340 nm.
(§2) The kinetic parameters were measured by monitoring the NADH absorbance at 340 nm. The activity of IPDC was measured using a coupled enzymatic assay method.
(§3) The activity of IPDC was measured using a coupled enzymatic assay method. Excess of an appropriate aldehyde dehydrogenase (AldH for 2-Keto-3-methylvalerate and KDHba for 2-Ketocaproate) was used to oxidize aldehyde into acid while cofactor NAD+ was reduced to NADH. The assay mixture contained 0.5 mM NAD+, 0.1 μM appropriate aldehyde dehydrogenase and corresponding 2-keto acid in the range of 1 mM to 8 mM in assay buffer (50 mM NaH2PO4, pH 6.8, 1 mM MgSO4, 0.5 mM ThDP) with a total volume of 78 μL. To start the reaction, 2 μL of 1 μM IPDC was added and generation of NADH was monitored at 340 nm. Kinetic parameters (kcat and KM) were determined by fitting initial rate data to the Michaelis-Menten equation.

[2] = biological target: T1, 3-hydroxypropionaldehyde dehydrogenase AldH (Escherichia coli, UniProt P23883); assay: Enzymatic assay of AldH (NADH absorbance at 340 nm); conditions: substrate of AldH; pH 8.0, 0.5 mM NAD+
T1 sequence (P23883 1-495): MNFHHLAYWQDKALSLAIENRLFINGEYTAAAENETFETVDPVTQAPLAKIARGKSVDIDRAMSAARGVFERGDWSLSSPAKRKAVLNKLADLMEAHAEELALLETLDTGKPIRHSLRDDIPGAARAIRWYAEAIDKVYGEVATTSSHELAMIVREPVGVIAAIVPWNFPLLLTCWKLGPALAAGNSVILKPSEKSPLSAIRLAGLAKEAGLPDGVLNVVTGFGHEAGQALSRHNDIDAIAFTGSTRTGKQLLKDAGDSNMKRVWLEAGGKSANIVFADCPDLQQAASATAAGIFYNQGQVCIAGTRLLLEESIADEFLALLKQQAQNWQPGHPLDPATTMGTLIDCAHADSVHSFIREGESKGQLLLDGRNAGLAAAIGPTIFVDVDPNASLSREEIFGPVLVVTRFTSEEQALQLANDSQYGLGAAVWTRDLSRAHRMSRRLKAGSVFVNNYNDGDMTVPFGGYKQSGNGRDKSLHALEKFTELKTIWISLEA
Protocol: as §1
(§4) Enzymatic assay of KDHba consisted of 0.5 mM NAD+ and valeraldehyde in the range of 50 μM to 400 μM in assay buffer (50 mM NaH2PO4, pH 8.0, 1 mM DTT) with a total volume of 78 μL. To start the reaction, 2 μL of 1 M KDHba was added and generation of NADH was monitored at 340 nm (extinction coefficient, 6.22 mM^−1 cm^−1). A similar protocol was used for AldH with 2-Methyl butyraldehyde concentrations in the range of 1 mM to 6 mM.

[3] = tested on: α-ketoglutaric semialdehyde dehydrogenase KDHba; conditions: substrate of KDHba; from Xiong et al., Sci Rep 2012; cited from earlier work
PA1 strain [4] = assay: Shake flask fermentation for pentanoic acid production (PA1 strain with pIPA1, pIPA3 and a DC-DH plasmid), HPLC; conditions: aldehyde dehydrogenase varied, wild-type KIVD as 2-ketoacid decarboxylase; 40 g/L glucose, 48 hours, 30° C.
PA1 strain [5] = assay: Shake flask fermentation for 2-methylbutyric acid production (PA1 strain with pIPA1, pIPA2 and a DC-DH plasmid), HPLC; conditions: aldehyde dehydrogenase varied, wild-type KIVD as 2-ketoacid decarboxylase; 40 g/L glucose, 48 hours, 30° C.
CCC(C)C(=O)C(=O)O = assay: purified protein, by the assay type; conditions: other: substrate of IPDC, coupled assay, pH 6.8
Protocol: as §1, §2, §3
CCCCC(=O)C(=O)O = assay: purified protein, by the assay type; conditions: other: substrate of IPDC, coupled assay, pH 6.8
Protocol: as §1, §2, §3

[6] = substrate: CCC(C)C=O; assay: purified protein, by the assay type; conditions: other: substrate of AldH, pH 8.0, 0.5 mM NAD+, 30.0 °C
Protocol: as §1, §4

indolepyruvate decarboxylase (IPDC), sequence (H9L492 1-550): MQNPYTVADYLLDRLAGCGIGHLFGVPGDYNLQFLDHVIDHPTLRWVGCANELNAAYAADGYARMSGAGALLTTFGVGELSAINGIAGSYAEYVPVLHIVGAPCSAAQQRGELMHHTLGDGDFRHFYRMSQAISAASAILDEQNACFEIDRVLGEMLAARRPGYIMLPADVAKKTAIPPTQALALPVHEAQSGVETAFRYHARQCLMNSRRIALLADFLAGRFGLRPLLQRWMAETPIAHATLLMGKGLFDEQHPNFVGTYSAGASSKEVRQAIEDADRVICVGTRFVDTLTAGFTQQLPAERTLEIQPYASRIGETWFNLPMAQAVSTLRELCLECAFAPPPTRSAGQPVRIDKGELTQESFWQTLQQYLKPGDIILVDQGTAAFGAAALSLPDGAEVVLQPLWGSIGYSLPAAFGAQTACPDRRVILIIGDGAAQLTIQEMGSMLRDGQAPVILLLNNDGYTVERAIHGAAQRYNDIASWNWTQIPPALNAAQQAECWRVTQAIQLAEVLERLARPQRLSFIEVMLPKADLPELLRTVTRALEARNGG

## CCC(C)C(=O)C(=O)O (stereo not drawn) [2-Keto-3-methylvalerate, 2-keto-3-methylvalerate]
[1]
  kcat: 4.13 s⁻¹

## CCCCC(=O)C(=O)O [2-Ketocaproate, 2-ketocaproate]
[1]
  kcat: 1.89 s⁻¹

## CCC(C)C=O (stereo not drawn) [2-Methyl butyraldehyde, 2-methyl butyraldehyde]
[2]
  kcat: 3.55 s⁻¹

## CC(C)C=O [isobutyraldehyde]
[3]
  Km: 34.5 mM

## CC(C)CC=O [isovaleraldehyde]
[3]
  Km: 7.62 mM

## YdcW: γ-aminobutyraldehyde dehydrogenase YdcW from E. coli
PA1 strain [4]
  pentanoic acid titer: 0.22 g/L
PA1 strain [5]
  2-methylbutyric acid titer: 0.23 g/L

## indolepyruvate decarboxylase (IPDC) (Salmonella enterica subsp. enterica serovar Typhimurium str. LT2)
CCC(C)C(=O)C(=O)O
  Km: 0.85 mM
  kcat: 4.13 ± 0.21 s⁻¹
  kcat/Km: 4860 M⁻¹ s⁻¹
CCCCC(=O)C(=O)O
  Km: 0.63 mM
  kcat: 1.89 ± 0.06 s⁻¹
  kcat/Km: 3000 M⁻¹ s⁻¹

B1: Al dB: acetaldehyde dehydrogenase AldB from E. coli (protein, UniProt P37685 1-512, looked up)
Aldehyde dehydrogenase B: MTNNPPSAQIKPGEYGFPLKLKARYDNFIGGEWVAPADGEYYQNLTPVTGQLLCEVASSGKRDIDLALDAAHKVKDKWAHTSVQDRAAILFKIADRMEQNLELLATAETWDNGKPIRETSAADVPLAIDHFRYFASCIRAQEGGISEVDSETVAYHFHEPLGVVGQIIPWNFPLLMASWKMAPALAAGNCVVLKPARLTPLSVLLLMEIVGDLLPPGVVNVVNGAGGVIGEYLATSKRIAKVAFTGSTEVGQQIMQYATQNIIPVTLELGGKSPNIFFADVMDEEDAFFDKALEGFALFAFNQGEVCTCPSRALVQESIYERFMERAIRRVESIRSGNPLDSVTQMGAQVSHGQLETILNYIDIGKKEGADVLTGGRRKLLEGELKDGYYLEPTILFGQNNMRVFQEEIFGPVLAVTTFKTMEEALELANDTQYGLGAGVWSRNGNLAYKMGRGIQAGRVWTNCYHAYPAHAAFGGYKQSGIGRETHKMMLEHYQQTKCLLVSYSDKPLGLF
PA1 strain [4]
  pentanoic acid titer: 0.42 g/L
PA1 strain [5]
  2-methylbutyric acid titer: 2.31 g/L

B2: 3-hydroxypropionaldehyde dehydrogenase AldH (Escherichia coli K-12) (protein)
chain: MNFHHLAYWQDKALSLAIENRLFINGEYTAAAENETFETVDPVTQAPLAKIARGKSVDIDRAMSAARGVFERGDWSLSSPAKRKAVLNKLADLMEAHAEELALLETLDTGKPIRHSLRDDIPGAARAIRWYAEAIDKVYGEVATTSSHELAMIVREPVGVIAAIVPWNFPLLLTCWKLGPALAAGNSVILKPSEKSPLSAIRLAGLAKEAGLPDGVLNVVTGFGHEAGQALSRHNDIDAIAFTGSTRTGKQLLKDAGDSNMKRVWLEAGGKSANIVFADCPDLQQAASATAAGIFYNQGQVCIAGTRLLLEESIADEFLALLKQQAQNWQPGHPLDPATTMGTLIDCAHADSVHSFIREGESKGQLLLDGRNAGLAAAIGPTIFVDVDPNASLSREEIFGPVLVVTRFTSEEQALQLANDSQYGLGAAVWTRDLSRAHRMSRRLKAGSVFVNNYNDGDMTVPFGGYKQSGNGRDKSLHALEKFTELKTIWISLEA
[6]
  Km: 1.89 mM
  kcat: 3.55 ± 0.17 s⁻¹
  kcat/Km: 1880 M⁻¹ s⁻¹
PA1 strain [4]
  pentanoic acid titer: 1.76 g/L
PA1 strain [5]
  2-methylbutyric acid titer: 2.51 g/L

B3: GabD: succinate semialdehyde dehydrogenase GabD from E. coli (protein, UniProt P25526 1-482, looked up)
Succinate-semialdehyde …: MKLNDSNLFRQQALINGEWLDANNGEAIDVTNPANGDKLGSVPKMGADETRAAIDAANRALPAWRALTAKERATILRNWFNLMMEHQDDLARLMTLEQGKPLAEAKGEISYAASFIEWFAEEGKRIYGDTIPGHQADKRLIVIKQPIGVTAAITPWNFPAAMITRKAGPALAAGCTMVLKPASQTPFSALALAELAIRAGVPAGVFNVVTGSAGAVGNELTSNPLVRKLSFTGSTEIGRQLMEQCAKDIKKVSLELGGNAPFIVFDDADLDKAVEGALASKFRNAGQTCVCANRLYVQDGVYDRFAEKLQQAVSKLHIGDGLDNGVTIGPLIDEKAVAKVEEHIADALEKGARVVCGGKAHERGGNFFQPTILVDVPANAKVSKEETFGPLAPLFRFKDEADVIAQANDTEFGLAAYFYARDLSRVFRVGEALEYGIVGINTGIISNEVAPFGGIKASGLGREGSKYGIEDYLEIKYMCIGL
PA1 strain [4]
  pentanoic acid titer: 0.54 g/L
PA1 strain [5]
  2-methylbutyric acid titer: 0.14 g/L

B4: PadA: phenylacetaldehyde dehydrogenase PadA from E. coli (protein, UniProt P80668 1-499, looked up)
Phenylacetaldehyde …: MTEPHVAVLSQVQQFLDRQHGLYIDGRPGPAQSEKRLAIFDPATGQEIASTADANEADVDNAVMSAWRAFVSRRWAGRLPAERERILLRFADLVEQHSEELAQLETLEQGKSIAISRAFEVGCTLNWMRYTAGLTTKIAGKTLDLSIPLPQGARYQAWTRKEPVGVVAGIVPWNFPLMIGMWKVMPALAAGCSIVIKPSETTPLTMLRVAELASEAGIPDGVFNVVTGSGAVCGAALTSHPHVAKISFTGSTATGKGIARTAADHLTRVTLELGGKNPAIVLKDADPQWVIEGLMTGSFLNQGQVCAASSRIYIEAPLFDTLVSGFEQAVKSLQVGPGMSPVAQINPLVSRAHCDKVCSFLDDAQAQQAELIRGSNGPAGEGYYVAPTLVVNPDAKLRLTREEVFGPVVNLVRVADGEEALQLANDTEYGLTASVWTQNLSQALEYSDRLQAGTVWVNSHTLIDANLPFGGMKQSGTGRDFGPDWLDGWCETKSVCVRY
PA1 strain [4]
  pentanoic acid titer: 2.12 g/L
PA1 strain [5]
  2-methylbutyric acid titer: 2.26 g/L
